± gives the uncertainty stated by the source.

This data set is described as follows: amyloid nucleation score (Sup35N fusion, yeast selection) (log enrichment); library NNK3; higher = more nucleation; inactive = no reads after selection. Summed up:
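DiMSum was used to calculate nucleation scores as log enrichment of output over input reads, centred on the mode score of non-aggregating sequences. Sequences with fewer than 100 input reads were not scored. Input and output came from Illumina sequencing of plasmid inserts in psi-negative yeast expressing peptides of 20 random codons fused to Sup35N, induced 24 hours with 100 μM copper sulfate and then grown 7 days at 30°C on medium lacking adenine and uracil.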
For the substance AANVESPKIYKWCINKRGMV, the amyloid nucleation score entry is “inactive”.

On to AASPQARGCILSCNVSRNQT, for which the amyloid nucleation score result is “inactive”.

AASRMLWPGWNIRPSDAVVE: the amyloid nucleation score result is “inactive”.

For the substance ACAATYLIADAFYELSGIGL, the amyloid nucleation score result was “inactive”.

On to ACFWLIDVTKWLTCYRRSSN, for which the amyloid nucleation score entry is “inactive”.

Take ACIVARARSSVVTCF: the amyloid nucleation score result was “inactive”.

In the case of ACLQRVQVKIHLGFTQTSFV, the amyloid nucleation score was 0.487 ± 0.36.

As to ACSLSWCHTGCY, the amyloid nucleation score result was “inactive”.

For ACSNWMRLMLVWNSTRNRVV, the amyloid nucleation score entry was “inactive”.

Consider ADFKKVSSLLRSTGLVGGFR, for which the amyloid nucleation score entry is “inactive”.

For ADKRFI, the amyloid nucleation score entry is “inactive”.

With AEALCQFIYCFAASKLTGVC, the amyloid nucleation score result was “inactive”.

Substance AEASNGACLRLCWLVLVWMD displayed an amyloid nucleation score of -0.206 ± 1.5.

For AFISSKARTYKIRMMPVPTS, the amyloid nucleation score result is “inactive”.

On to AFLSLCKLDYSYANCLVIVV, for which the amyloid nucleation score entry was “inactive”.

Regarding AFSIYHRIIIMRFRKYNIFA, the amyloid nucleation score entry is “inactive”.

In turn, AFVFATAITELVYCSCLNRP returned an amyloid nucleation score of 2.04 ± 0.089.

Turning to AFVKFSRTWSSVSSLCGFQA, the amyloid nucleation score entry is “inactive”.

For AFYLMLVS, the amyloid nucleation score turned out to be 1.12 ± 0.12.

For the substance AGCAIALLYGWESLRAVFL, the amyloid nucleation score entry is “inactive”.

As to AGFAMYFGFVGYNFSFPWG, the amyloid nucleation score was 1.17 ± 0.19.

Turning to AGGLSGDNWRRIDG, the amyloid nucleation score result was “inactive”.

In turn, AGPVPIT had an amyloid nucleation score of 0.723 ± 0.25.

Turning to AGSDHVLRDRHYVVMPQEFL, the amyloid nucleation score entry was “inactive”.

Take AGSILYGHYLDACGRHSRVI: the amyloid nucleation score entry was “inactive”.

Consider AGTTEWRG, for which the amyloid nucleation score entry was “inactive”.

Regarding AGWIDAYRFYNELLLGLRDH, the amyloid nucleation score entry was “inactive”.

In the case of AHRRKLKWDNGHCNLRTKFR, the amyloid nucleation score entry is “inactive”.

For AIEKGHK, the amyloid nucleation score was found to be 0.235 ± 0.19.

As to AIGMMASRWNLWCITLFLLK, the amyloid nucleation score entry was “inactive”.

Regarding AIINSVREPWAPAMAHTNNA, the amyloid nucleation score was determined as 0.586 ± 0.21.

As to AIRKL, the amyloid nucleation score result is “inactive”.

On to AITVGLSGARRD, for which the amyloid nucleation score entry was “inactive”.

Consider AIYVFIRLLYVNIHDTTPVR, for which the amyloid nucleation score entry is “inactive”.

Take AKCFFPGVNLMVGSQLFWLR: the amyloid nucleation score result is “inactive”.

Take AKFARYSTYLPLLSVHDIND: the amyloid nucleation score entry is “inactive”.

Substance AKWMAFSSSSFRSCFFSFKQ returned an amyloid nucleation score of -0.804 ± 1.8.

Take AKWVLDFVKDRLPFRFCMLV: the amyloid nucleation score entry is “inactive”.

Turning to ALAMTFVNIDKSFFFNVYSM, the amyloid nucleation score worked out at 2.89 ± 0.069.

As for ALCANYCFAMFSDSGLRWTV, the amyloid nucleation score is 1.01 ± 0.09.

As for ALCKCALG, the amyloid nucleation score result is “inactive”.

In the case of ALFAGLIECQCDNILGPETG, the amyloid nucleation score entry is “inactive”.

As to ALFYHFL, the amyloid nucleation score result is “inactive”.

For ALLESFIKKRSMFLNVNGGF, the amyloid nucleation score result is “inactive”.

In turn, ALLTFILVLIVEVVNWRKVC returned an amyloid nucleation score of 0.961 ± 0.23.

In the case of ALMCIHRLCPNIVPDQ, the amyloid nucleation score entry was “inactive”.

ALPREPESVLG: the amyloid nucleation score entry is “inactive”.

As to ALRQRNDCEPYIVRTFWVET, the amyloid nucleation score result is “inactive”.

Consider ALRRVMVICLFKLDSEAHST, for which the amyloid nucleation score result is “inactive”.

For ALSLYLISLWYGYSWYLRFD, the amyloid nucleation score result was “inactive”.

Take ALSRMGEFEDYCLTMGKKVF: the amyloid nucleation score result is “inactive”.

For the substance ALWLPITVDWMLESGCGGCY, the amyloid nucleation score entry is “inactive”.

The substance ALYRSGLNFVIRVGTLLMIW gave an amyloid nucleation score of 1.06 ± 0.12.

AMCCF: the amyloid nucleation score result was “inactive”.

In the case of AMFTRSRVSITLCGRWAYCS, the amyloid nucleation score entry was “inactive”.

Turning to AMIMSFFWRKVT, the amyloid nucleation score result is “inactive”.

As for AMKSAW, the amyloid nucleation score result is “inactive”.

Turning to AMSTGSSTWWYRSSKAIRGS, the amyloid nucleation score entry was “inactive”.

As to ANIFGVNTFGESRKHSIARC, the amyloid nucleation score result was “inactive”.

Turning to ANLSRSSTLLSGVWSEV, the amyloid nucleation score entry is “inactive”.

Regarding ANRYNSITE, the amyloid nucleation score was -0.765 ± 1.5.

ANSTNKQC: the amyloid nucleation score result is “inactive”.

Take ANVLFEVSACLAKGIVKVRR: the amyloid nucleation score result was “inactive”.

For the substance APRGVSTDLDAVHRWYYSGR, the amyloid nucleation score was -0.025 ± 0.88.

On to APRLFKQIIVTQTDGSLEGE, for which the amyloid nucleation score entry is “inactive”.

For APSNGRE, the amyloid nucleation score result is “inactive”.

Take APTRSV: the amyloid nucleation score entry is “inactive”.

As for AQRVMD, the amyloid nucleation score entry is “inactive”.

Regarding AQYLLYINDPCTCVVATPCR, the amyloid nucleation score result was “inactive”.

For ARCVVAFIILGNYR, the amyloid nucleation score is 0.663 ± 0.21.

With AREYDWQDYILVSVMYTLVW, the amyloid nucleation score result was “inactive”.

As to AREYMI, the amyloid nucleation score entry is “inactive”.

On to ARMLRYRHIAS, for which the amyloid nucleation score result is “inactive”.

Substance ARSIFARLQYSHLSSRGEVI gave an amyloid nucleation score of 0.018 ± 1.

ARSNRCSM: the amyloid nucleation score entry is “inactive”.

As to ASDKMELILLLTSYRSYYDC, the amyloid nucleation score result was “inactive”.

Consider ASGFLYSSSHLERNKLVNKF, for which the amyloid nucleation score result is “inactive”.

On to ASGSFKPFFSVEWYLS, for which the amyloid nucleation score result is “inactive”.

On to ASLMERSIMYFVLVNNPRSE, for which the amyloid nucleation score is 0.355 ± 0.29.

For the substance ASRHSQMWIS, the amyloid nucleation score came to 0.129 ± 0.88.

Take ASRIDNIDWGGRKKLRNVEG: the amyloid nucleation score entry was “inactive”.

On to ASSLHDPMRYVQTFRISWCC, for which the amyloid nucleation score is 1.34 ± 0.12.

For the substance ASTRNVGYRVT, the amyloid nucleation score entry is “inactive”.

For the substance ATAVMVRILQRACTFLDAKS, the amyloid nucleation score entry was “inactive”.

With ATCWTLGNDVRFGMRAFTFV, the amyloid nucleation score entry was “inactive”.

Consider ATDCLCEQRPVFPNKVKWQS, for which the amyloid nucleation score entry is “inactive”.

Regarding ATLDTER, the amyloid nucleation score entry was “inactive”.

As to AVDLV, the amyloid nucleation score result is “inactive”.

As for AVEEHLIHLSCCVQAVNRRV, the amyloid nucleation score was found to be 2.36 ± 0.074.

AVGKM: the amyloid nucleation score is -0.082 ± 0.88.

Consider AVIDRNYVRTALAVMIASGH, for which the amyloid nucleation score result was “inactive”.

With AVPNIL, the amyloid nucleation score entry was “inactive”.

In the case of AVRWQSGSTRFLSCWLWQKN, the amyloid nucleation score result is “inactive”.

With AVTKLILFVVSGGMLRVLEF, the amyloid nucleation score entry was “inactive”.

As for AVVARGGVLVGTLCFLFWLS, the amyloid nucleation score result is “inactive”.

In the case of AVYGVFRRRS, the amyloid nucleation score entry was “inactive”.

With AVYLCI, the amyloid nucleation score result is “inactive”.

In the case of AWLMRLMSYLGSSGWE, the amyloid nucleation score result is “inactive”.

Turning to AWLNFCPSHVLLLFESYLNV, the amyloid nucleation score result is “inactive”.

For the substance AWNFNLKLKELRKTMTS, the amyloid nucleation score result was “inactive”.

Regarding AWSWLRANSRTQFWSRGLKP, the amyloid nucleation score entry is “inactive”.

As for AWVLCVKERFRSAGCECTGF, the amyloid nucleation score result is “inactive”.

On to AYADGYNLFWDYK, for which the amyloid nucleation score entry is “inactive”.

Regarding AYETFGNCRLVASVIIDGIS, the amyloid nucleation score result is “inactive”.

In the case of AYINTRYGFFGNLVDDTKSS, the amyloid nucleation score result is “inactive”.

Take AYLFLLWSW: the amyloid nucleation score entry is “inactive”.

Turning to AYRLEPT, the amyloid nucleation score result was “inactive”.

Consider AYSSHFTCRPYGFNLWSLGS, for which the amyloid nucleation score entry is “inactive”.

With AYVFVYESYAWGNLRQ, the amyloid nucleation score entry is “inactive”.

For the substance AYYKCWNNATDLVTNVPPIH, the amyloid nucleation score result was “inactive”.

With CAFLFL, the amyloid nucleation score entry was “inactive”.

As for CALCRYC, the amyloid nucleation score result is “inactive”.

Consider CASLCHSSGVCRD, for which the amyloid nucleation score result was “inactive”.

On to CCGVLQRMKISQKVN, for which the amyloid nucleation score entry was “inactive”.

For the substance CCIMLTWKRCLNKRLVTTDP, the amyloid nucleation score entry was “inactive”.

Take CCIMQPCSVVVYQWSQNRSR: the amyloid nucleation score was 3.14 ± 0.053.

As for CCKSCSTLFLNFSLFNDLLT, the amyloid nucleation score result was “inactive”.

On to CCKTFYY, for which the amyloid nucleation score result is “inactive”.

As to CCNMYVSFTCWHRRRSFS, the amyloid nucleation score was 1.23 ± 0.13.

CCRLVRHFE: the amyloid nucleation score entry was “inactive”.

With CDEGSGWILFIRHLLLYWRG, the amyloid nucleation score entry was “inactive”.

As for CDFTKSNDTCMDTASMSLLV, the amyloid nucleation score result is “inactive”.

On to CDFTRESYTDNTAASIPMLM, for which the amyloid nucleation score result is “inactive”.

For the substance CDNWLSYMWFYGNGAAPEGR, the amyloid nucleation score stood at 2.06 ± 0.094.

CDNYVLPNYRYLSGFFKFGL: the amyloid nucleation score entry is “inactive”.

Consider CDWPPAFYQC, for which the amyloid nucleation score entry is “inactive”.

CDYIKAKSVTDVCGNP: the amyloid nucleation score result was “inactive”.

Substance CEDGA had an amyloid nucleation score of -0.068 ± 0.75.

For the substance CEGRHKFF, the amyloid nucleation score entry is “inactive”.

CEIVFQYVFNFFSPTTSVVC: the amyloid nucleation score stood at 1.54 ± 0.089.

Consider CERKQVYNDRRINS, for which the amyloid nucleation score entry is “inactive”.

Take CFAIWVCKSVR: the amyloid nucleation score result was “inactive”.

Take CFASTRSGVILNYTMVVVDF: the amyloid nucleation score turned out to be 1.78 ± 0.098.
